Molecular target: T1, Pot1pC (C-terminal domain of the Pot1 DNA-binding domain) (Schizosaccharomyces pombe, UniProt O13988 198-339, V199D)
T1 sequence: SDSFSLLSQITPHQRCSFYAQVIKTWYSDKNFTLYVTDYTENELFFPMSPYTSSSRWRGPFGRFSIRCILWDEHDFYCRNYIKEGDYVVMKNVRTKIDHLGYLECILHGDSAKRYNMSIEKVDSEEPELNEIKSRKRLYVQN
Experiment: X-ray crystallography

B1: 1R (mixed)
DNA: GGTTACGGT
modifications: ribose at 1 (rG1), rest DNA
binding result: binds

— PMC5987771
